This note sets out measurements from the supplement of paper PMC10567573.

To fix the notation:
B1: TEKT4 (parent)
chain: SEVEELNMSLTALREKLLEAEQSL
B2: CAMK2A (parent)
chain: CIQQILEAVLHCHQMGVVHRDLKP
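Further: lentivirally expressed fusions sorted by FACS into six bins by GFP to DsRed ratio, PSI derived from sequencing read proportions per bin multiplied by bin number.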

One data set covers variants of B1. The data set is described as follows: protein stability index of a GFP-peptide fusion (GPS, HEK-293T) (PSI 1-6); higher = more stable. As to conditions: c terminus: a fixed tail appended.
For the variant SEVEELNMSLTALREKLLEAEQML [S23M], the protein stability index is 2.74. Same read-out and setting: the value for SEVEELNMSLTALREKLLEAEQVL [S23V] was 2.87; that for SEVEELNMSLTALREKLLEAEQKL [S23K] was 3.17; that for SEVEELNMSLTALREKLLEAEQWL [S23W] was 2.75. SEVEELNMSLTALREKLLEAEQHL [S23H]: the protein stability index came to 2.31. Turning to SEVEELNMSLTALREKLLEAEQAL [S23A], the protein stability index is 2.47.

Take SEVEELNMSLTALREKLLEAEQYL [S23Y]: the protein stability index worked out at 2.33. Same read-out and setting: the value for SEVEELNMSLTALREKLLEAEQNL [S23N] was 3.21; that for SEVEELNMSLTALREKLLEAEQEL [S23E] was 3.93. For SEVEELNMSLTALREKLLEAEQIL [S23I], the protein stability index turned out to be 2.74. As to SEVEELNMSLTALREKLLEAEQRL [S23R], the protein stability index was determined as 2.9. Still for that read-out and setting: the value for SEVEELNMSLTALREKLLEAEQQL [S23Q] was 2.72; that for SEVEELNMSLTALREKLLEAEQGL [S23G] was 3.66. Same read-out and setting: the value for SEVEELNMSLTALREKLLEAEQLL [S23L] was 2.37. The same measure, in the same setting: the value for SEVEELNMSLTALREKLLEAEQPL [S23P] was 4.45; that for SEVEELNMSLTALREKLLEAEQCL [S23C] was 2.39; that for SEVEELNMSLTALREKLLEAEQFL [S23F] was 2.48.

Regarding SEVEELNMSLTALREKLLEAEQDL [S23D], the protein stability index was determined as 3.36. The same measure, in the same setting: the value for SEVEELNMSLTALREKLLEAEQTL [S23T] was 2.77; that for SEVEELNMSLTALREKLLEAMQSL [E21M] was 3.16. For the variant SEVEELNMSLTALREKLLEAWQSL [E21W], the protein stability index came to 2.36.

Consider SEVEELNMSLTALREKLLEARQSL [E21R], for which the protein stability index was found to be 3.26. As for SEVEELNMSLTALREKLLEAKQSL [E21K], the protein stability index is 3.42. Regarding SEVEELNMSLTALREKLLEATQSL [E21T], the protein stability index is 2.97. For SEVEELNMSLTALREKLLEAGQSL [E21G], the protein stability index was 3.51. On the same count and under the same terms, the value for SEVEELNMSLTALREKLLEADQSL [E21D] was 4.83; that for SEVEELNMSLTALREKLLEALQSL [E21L] was 2.81; that for SEVEELNMSLTALREKLLEAIQSL [E21I] was 2.06. Same read-out and setting: the value for SEVEELNMSLTALREKLLEANQSL [E21N] was 3.34; that for SEVEELNMSLTALREKLLEAVQSL [E21V] was 2.36. The same measure, in the same setting: the value for SEVEELNMSLTALREKLLEAHQSL [E21H] was 3.06.

With SEVEELNMSLTALREKLLEAPQSL [E21P], the protein stability index stood at 2.45. The same measure, in the same setting: the value for SEVEELNMSLTALREKLLEASQSL [E21S] was 2.94; that for SEVEELNMSLTALREKLLEACQSL [E21C] was 2.23. For the variant SEVEELNMSLTALREKLLEAQQSL [E21Q], the protein stability index was 3.44. The same measure, in the same setting: the figure for SEVEELNMSLTALREKLLEAAQSL [E21A] is 2.8; for SEVEELNMSLTALREKLLEAYQSL [E21Y] it is 2.77. Regarding SEVEELNMSLTALREKLLEAFQSL [E21F], the protein stability index is 2.62. Same read-out and setting: the value for SEVEELNMSLTALREKLLEYEQSL [A20Y] was 3.88; that for SEVEELNMSLTALREKLLEVEQSL [A20V] was 4.41; that for SEVEELNMSLTALREKLLEMEQSL [A20M] was 3.73. Turning to SEVEELNMSLTALREKLLEREQSL [A20R], the protein stability index worked out at 4.28. Consider SEVEELNMSLTALREKLLEPEQSL [A20P], for which the protein stability index was 4.76.

For SEVEELNMSLTALREKLLEKEQSL [A20K], the protein stability index was 4.9. As for SEVEELNMSLTALREKLLEQEQSL [A20Q], the protein stability index was 4.32. In the case of SEVEELNMSLTALREKLLEHEQSL [A20H], the protein stability index was found to be 3.93. On to SEVEELNMSLTALREKLLETEQSL [A20T], for which the protein stability index came to 4.26. On the same count and under the same terms, the figure for SEVEELNMSLTALREKLLENEQSL [A20N] is 4.52; for SEVEELNMSLTALREKLLEIEQSL [A20I] it is 3.55; for SEVEELNMSLTALREKLLELEQSL [A20L] it is 3.98.

Take SEVEELNMSLTALREKLLEGEQSL [A20G]: the protein stability index is 4.88. Same read-out and setting: the value for SEVEELNMSLTALREKLLESEQSL [A20S] was 4.18; that for SEVEELNMSLTALREKLLEWEQSL [A20W] was 2.95; that for SEVEELNMSLTALREKLLEAEGSL [Q22G] was 3.6. Still for that read-out and setting: the value for SEVEELNMSLTALREKLLEAEESL [Q22E] was 3.37. Same read-out and setting: the value for SEVEELNMSLTALREKLLEAEWSL [Q22W] was 1.89.

For SEVEELNMSLTALREKLLEAEKSL [Q22K], the protein stability index was determined as 3.36. Consider SEVEELNMSLTALREKLLEAEPSL [Q22P], for which the protein stability index is 3.99. Turning to SEVEELNMSLTALREKLLEAEASL [Q22A], the protein stability index was 2.81.

With SEVEELNMSLTALREKLLEAEHSL [Q22H], the protein stability index was found to be 2.5. In the case of SEVEELNMSLTALREKLLEAETSL [Q22T], the protein stability index was 3.64. Turning to SEVEELNMSLTALREKLLEAEVSL [Q22V], the protein stability index is 2.23. On the same count and under the same terms, the figure for SEVEELNMSLTALREKLLEAEMSL [Q22M] is 1.91; for SEVEELNMSLTALREKLLEAENSL [Q22N] it is 2.54; for SEVEELNMSLTALREKLLEAESSL [Q22S] it is 3.44.

In the case of SEVEELNMSLTALREKLLEAELSL [Q22L], the protein stability index is 1.96. For the variant SEVEELNMSLTALREKLLEAEDSL [Q22D], the protein stability index turned out to be 2.48.

On to SEVEELNMSLTALREKLLEAEYSL [Q22Y], for which the protein stability index came out at 1.94. Still for that read-out and setting: the value for SEVEELNMSLTALREKLLEAECSL [Q22C] was 2.37; that for SEVEELNMSLTALREKLLEAERSL [Q22R] was 2.64; that for SEVEELNMSLTALREKLLEAEISL [Q22I] was 1.72.

Consider SEVEELNMSLTALREKLLEAEFSL [Q22F], for which the protein stability index came to 1.75. On the same count and under the same terms, the figure for SEVEELNMSLTALREKLLEAEQSA [L24A] is 4.18; for SEVEELNMSLTALREKLLEAEQSQ [L24Q] it is 4.78; for SEVEELNMSLTALREKLLEAEQSF [L24F] it is 4.51.

Take SEVEELNMSLTALREKLLEAEQSM [L24M]: the protein stability index came out at 4.18. On the same count and under the same terms, the figure for SEVEELNMSLTALREKLLEAEQSH [L24H] is 4.41.

SEVEELNMSLTALREKLLEAEQST [L24T]: the protein stability index worked out at 4.97. On to SEVEELNMSLTALREKLLEAEQSY [L24Y], for which the protein stability index is 3.82. Same read-out and setting: the value for SEVEELNMSLTALREKLLEAEQSR [L24R] was 4.23.

Consider SEVEELNMSLTALREKLLEAEQSS [L24S], for which the protein stability index was 4.63. With SEVEELNMSLTALREKLLEAEQSG [L24G], the protein stability index worked out at 5.01. Same read-out and setting: the value for SEVEELNMSLTALREKLLEAEQSE [L24E] was 4.69. Still for that read-out and setting: the figure for SEVEELNMSLTALREKLLEAEQSN [L24N] is 4.97; for SEVEELNMSLTALREKLLEAEQSK [L24K] it is 5.14; for SEVEELNMSLTALREKLLEAEQSD [L24D] it is 5.19.

With SEVEELNMSLTALREKLLEAEQSP [L24P], the protein stability index was found to be 4.99. As to SEVEELNMSLTALREKLLEAEQSI [L24I], the protein stability index was 3.1. On the same count and under the same terms, the value for SEVEELNMSLTALREKLLEAEQSC [L24C] was 3.82; that for SEVEELNMSLTALREKLLEAEQSV [L24V] was 2.25.

In the case of SEVEELNMSLTALREKLLEAEQSW [L24W], the protein stability index amounted to 3.74.

In another data set the parent is B2. The data set is described as above. As to conditions: c terminus: a fixed tail appended.
In the case of CIQQITEAVLHCHQMGVVHRDLKP [L6T], the protein stability index stood at 1.69. Same read-out and setting: the figure for CIQQISEAVLHCHQMGVVHRDLKP [L6S] is 1.71. Turning to CIQQICEAVLHCHQMGVVHRDLKP [L6C], the protein stability index came out at 1.84.
